± gives the uncertainty stated by the source.
Experiment: amyloid nucleation score (Sup35N fusion, yeast selection) (log enrichment); library NNK3; higher = more nucleation; inactive = no reads after selection
Outline: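 The nucleation score, computed with DiMSum, is the log enrichment of output over input reads, centred on the mode score of non-aggregating sequences. Sequences with under 100 input reads were dropped. Reads were generated by Illumina sequencing of plasmid inserts from psi-negative yeast with Sup35N fused to peptides of 20 random codons, induced with 100 μM copper sulfate for 24 hours and grown 7 days at 30°C on medium lacking adenine and uracil.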

Row | Substance | amyloid nucleation score
1 | TADLRRQTLGWGKFYYVSWF | inactive
2 | VVGSDGMFTCSCLREVR | inactive
3 | PLCATFKDTNRNNTVYRSLF | inactive
4 | GITMFGLHMYQNDCLEVAWL | 0.904 ± 0.25
5 | LEKELRLCSKAWLSSQISIV | inactive
6 | THKVWFKCVDAYNLAYVNSI | inactive
7 | RTWLGWEGNIIPSETGTYRS | inactive
8 | KYNHIYVYKSIRCVQGVLDG | inactive
9 | GRGTYGSNPYRGLDIYRYDG | inactive
10 | RTDCV | inactive
11 | LFDHYWLGSWIVENSYPSGE | inactive
12 | AMKPMKNRSASLVGN | inactive
13 | IIKDLPVCVDERASYAEVMS | inactive
14 | AFRTFSFLGITS | inactive
15 | SKSIMTWWEVLDGGSNLKSV | inactive
16 | VPGLHLSNPTAELDMQI | inactive
17 | STSVSLTWNPKKRLYYLLTI | inactive
18 | IRVLVCIFWKTCPPNYVCRI | inactive
19 | VLGILYSTE | inactive
20 | ASFLVYGP | inactive
21 | FYILCHHKDCNIGHPILGGK | inactive
22 | HPLDYTVGSVVMGV | inactive
23 | EMSWRSVKSSHYKQMEFSGR | inactive
24 | LYAINLWLAVFYRLQQFMDV | inactive
25 | MCPHKGIRSISLMIG | inactive
26 | LRRRVKSFSELYLAVTRVML | 0.286 ± 0.43
27 | EGRSNNLCSSSSLWQVHAAL | inactive

Row | Substance | amyloid nucleation score
28 | YRLCLDSCIKIYLQGWVYVY | inactive
29 | IAGMCGRGWREPLVERSGKD | inactive
30 | HVNNTKSSLVRLSVLMHSVS | inactive
31 | FVRIHVGSSTGIF | inactive
32 | VSRKRQLWEKCGTFVQRASM | inactive
33 | GTALLRFGIVGPNDLVRLCC | inactive
34 | GILNT | inactive
35 | LCEKYFLRRFYFMTTGLSGR | inactive
36 | FFVTR | inactive
37 | FVDLSSIDYVF | inactive
38 | KGFTDWFWCFTPVVEWKSIT | inactive
39 | LMETSSRYTFYMKGLHRTMS | 0.428 ± 0.27
40 | VGGGSFCFKHRLNGGTDGHV | 1.11 ± 0.13
41 | RLKNHSGCIILNRCVSRGRI | inactive
42 | TISDFISEEIRDLQGPVVCI | inactive
43 | PTIQQDWIAFYIHSCEFLVL | inactive
44 | FNFFTKVASDHRNI | inactive
45 | HVLKDARCDS | 0.181 ± 0.36
46 | SCPIRDSGTGSYL | inactive
47 | FYYYDLYYGRVFRDSPYSMS | inactive
48 | ALIYNATGLTYF | inactive
49 | TRSCNLNTFKVDASGPPWHG | inactive
50 | DVLLVIKVDYQVGLARVSRL | inactive
51 | ICIFVFFRYWHVVHVT | inactive
52 | HRIVSFYRNSWVPSIFVYED | inactive
53 | RSMNLRSKLMSACGGFMS | inactive
54 | VNIAETFSRHDPSHLWSYKS | inactive

Row | Substance | amyloid nucleation score
55 | VKISPNAWALQLR | inactive
56 | IDSAEASCIGCLVRQCADPI | inactive
57 | CYYDEVFAFLSLMTFRIQNK | inactive
58 | HSSCGNEVFFDSSVGSNRIL | inactive
59 | GSCWLDVCQDCKSFSILS | inactive
60 | TCFFISSIFSFDKHVIVCCA | 0.536 ± 0.32
61 | YLTSFRFYVFTFR | inactive
62 | LRYWWLDLTYYL | inactive
63 | RIIIVYR | inactive
64 | YCVWFPSVCFIRRYVSIRLI | inactive
65 | ASRKVTRVVMHINLRLWYET | inactive
66 | WSVSKCDVLGLNSDVFKLWL | inactive
67 | IVWEGSSPLVLIKHGICKQR | inactive
68 | LYGDL | inactive
69 | LQLWVSFSSVKLCYCISHSF | inactive
70 | SVRVYGDCLCECWSCYTPRT | 0.502 ± 0.32
71 | MDPESVWED | inactive
72 | QSLLDLMSFLMCV | inactive
73 | YFHGFLFYSE | inactive
74 | NLFSRLRYSLSAFQIWRLSV | inactive
75 | YMGEVCCIVVVTDHLCTVVI | inactive
76 | HSVIVVCVFSYELFEFHSAV | inactive
77 | FLKLGDSGRVYLLCFLAQVS | inactive
78 | IQLICEAIAGFLYNVIFVVL | inactive
79 | LWIWR | -0.43 ± 0.7
